Reference: patent US20250313625A1 (ELPISCIENCE SUZHOU BIOPHARMA, published 2025)
Positions count from the first letter of the chain named.

T1: hFc tagged human LAG3 D1-D2 recombinant protein (human, UniProt P18627 23-261)
T1 construct: range 23-261; generated by Chempartner; also called hLAG3 D1-D2; not shown: human IgG Fc tag
T1 sequence (looked up): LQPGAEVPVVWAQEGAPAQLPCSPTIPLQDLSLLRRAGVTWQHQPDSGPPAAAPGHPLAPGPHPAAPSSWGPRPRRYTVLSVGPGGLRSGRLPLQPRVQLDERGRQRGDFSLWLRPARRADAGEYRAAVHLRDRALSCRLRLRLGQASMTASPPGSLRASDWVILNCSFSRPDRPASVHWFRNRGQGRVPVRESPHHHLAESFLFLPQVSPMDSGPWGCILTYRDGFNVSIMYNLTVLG

T2: hFc tagged human LAG3 ECD recombinant protein (human, UniProt P18627 23-450)
T2 construct: range 23-450; also called biotin labelled hFc tagged human LAG3 ECD; not shown: human IgG Fc tag
T2 sequence (looked up): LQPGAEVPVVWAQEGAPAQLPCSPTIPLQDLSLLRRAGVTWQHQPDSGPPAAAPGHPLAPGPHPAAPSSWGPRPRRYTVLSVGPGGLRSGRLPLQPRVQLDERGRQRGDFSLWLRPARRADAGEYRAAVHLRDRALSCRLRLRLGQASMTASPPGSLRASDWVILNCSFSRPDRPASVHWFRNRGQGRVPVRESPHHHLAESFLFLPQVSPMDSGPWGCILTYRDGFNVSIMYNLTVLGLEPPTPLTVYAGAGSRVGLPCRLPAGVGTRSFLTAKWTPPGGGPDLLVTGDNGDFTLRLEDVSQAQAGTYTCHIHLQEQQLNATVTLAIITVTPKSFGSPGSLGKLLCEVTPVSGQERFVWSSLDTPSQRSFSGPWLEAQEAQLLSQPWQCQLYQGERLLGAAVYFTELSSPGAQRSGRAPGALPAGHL

T3: human LAG3, full length, stably expressed on cells (human, UniProt P18627 23-525)
T3 construct: whole, on cells; also called CHOK1-human LAG3
T3 sequence (looked up): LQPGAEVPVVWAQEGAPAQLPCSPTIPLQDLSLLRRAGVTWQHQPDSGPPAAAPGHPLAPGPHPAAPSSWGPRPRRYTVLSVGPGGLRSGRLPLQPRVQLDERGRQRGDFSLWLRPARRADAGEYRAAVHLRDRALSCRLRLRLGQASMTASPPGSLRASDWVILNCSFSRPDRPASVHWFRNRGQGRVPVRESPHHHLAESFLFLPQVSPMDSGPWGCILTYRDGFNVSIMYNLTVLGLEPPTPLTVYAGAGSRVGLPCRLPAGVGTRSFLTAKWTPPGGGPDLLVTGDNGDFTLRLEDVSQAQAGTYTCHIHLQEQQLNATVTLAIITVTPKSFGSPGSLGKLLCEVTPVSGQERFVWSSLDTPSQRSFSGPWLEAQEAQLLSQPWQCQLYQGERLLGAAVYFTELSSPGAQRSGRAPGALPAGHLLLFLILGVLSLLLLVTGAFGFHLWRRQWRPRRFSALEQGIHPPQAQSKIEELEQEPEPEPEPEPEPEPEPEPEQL

T4: mouse LAG3, full length, stably expressed on CHOK1 cells (mouse, UniProt Q61790 24-521)
T4 construct: whole, on cells
T4 sequence (looked up): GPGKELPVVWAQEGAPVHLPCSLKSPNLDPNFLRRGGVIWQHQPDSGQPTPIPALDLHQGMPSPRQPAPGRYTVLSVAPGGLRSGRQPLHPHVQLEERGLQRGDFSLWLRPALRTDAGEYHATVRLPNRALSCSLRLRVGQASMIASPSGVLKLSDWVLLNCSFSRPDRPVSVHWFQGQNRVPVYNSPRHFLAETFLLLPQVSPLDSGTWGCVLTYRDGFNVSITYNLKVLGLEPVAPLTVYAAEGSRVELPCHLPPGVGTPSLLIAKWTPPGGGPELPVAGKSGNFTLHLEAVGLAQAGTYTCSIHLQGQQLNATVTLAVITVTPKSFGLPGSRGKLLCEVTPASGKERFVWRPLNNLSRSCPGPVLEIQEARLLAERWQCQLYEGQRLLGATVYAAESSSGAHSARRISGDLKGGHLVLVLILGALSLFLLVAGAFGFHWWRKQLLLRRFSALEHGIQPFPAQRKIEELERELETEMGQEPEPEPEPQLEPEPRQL

B1: Antibody 027 (antibody, V domains shown)
VH: EVKILQSGGGLVQPGGSLKLSCAASGIDFSRYWMSWVRRTPGKGLEWIGEINPDSSTINYAPSLKDKFIISRDNAKNTLYLQMSKVRSEDTALYYCARLGIIPTYHYGSSGYYYAMDYWGQGTSVTVSS
VL: DVLMTQTPLSLPVSLGDRASISCRSSQTIVHGNGHTSLEWYLQKPGQSPQLLIYKVSNRFSGVPDRFSASGSGTDFTLTISRVEAEDLGVYYCFQVSHVPYTFGGGTKLEIK
notes: mouse hybridoma antibody
B2: Antibody 033 (antibody, V domains shown)
VH: EVQLQQSGAELVRPGASVKLSCTASDFNIKDDYIHWVKQRPEQGLEWIGWIDLENGDTEYASKFQGKATITADTSSNTAYLQLSSLTSEDTAVYYCTTKGSHWGQGTLVTVSA
VL: DVVMTQIPLSLPVSLGDQASISCRSSQSLVYSNGNTYLNWYLQKPGQSPKLLIHKVSNRFSGVPDRFSGSGSGTDFTLKISRVEAEDLGVYFCSQSTHVPYTFGGGTKLEIR
notes: mouse hybridoma antibody
B3: Antibody 024 (antibody, V domains shown)
VH: EVQLQQSGPELVKPGASVKISCKASGYTFTDYYMNWVKQSHGKRLEWIGDIDPNNGGTSYNQKFKGKATLTVDKSSSSAYMDLRSLTSEDSAVYYCARAGSYYYGSSYVEYFDVWGTGTTVTVSS
VL: DIQMTQSPASLSASVGETVTITCRASGNIHNYLAWYQQKQGASPQLLVYNAKTLADGVPSRFSGSGSGTEFSLKINSLQPEDFGNYYCQHFWNTPYTFGGGTKLEIK
notes: mouse hybridoma antibody
B4: Antibody 023 (antibody, V domains shown)
VH: QIQLVQSGPVLKKPGETVKISCKASGYTFTESPMNWVKQAPGRGFKWMGMIYTDTGEPTYAEEFKGRFAFSLETSASTAYLQINNLKSEDTATYFCVSDYGSILYWYFDVWGTGTTVTVSS
VL: DIVMTQSHKFMSTSVGDRVSITCKASQDVSTAVAWYQQTPGQSPKLLIYSASYRYTGVPDRFTGSGSGTDFTFTISSVQAEDLAVYYCQQHYNSPPTFGAGTKLELK
notes: mouse hybridoma antibody
B5: Antibody 029 (antibody, V domains shown)
VH: DVKLVESGEDLVKPGGSLKLSCAASGFTFSSYAMSWVRQTPEKRLEWVAYVTSGGDYIYYADTVKGRFTISRDDVRNTLYLQMSSLKSEDTAMYYCTRVAYDYEWYFDVWGTGAPVTVSS
VL: B4 VL with S30T, T39K, P59S, V85L, Y92D, N93S, P96W, A100G, L106I
notes: mouse hybridoma antibody
B6: Antibody 038 (antibody, V domains shown)
VH: DVQVQESGPGLVKPSQSLSLTCSVTGYSITSGYYWNWIRQFPGNKLEWMGYISYDGSNEYNLSLKNRLSITRDTSKNQFFLKLNSVTTEDTATYYCAREEDGYYGGMDYWGQGTSVTVSS
VL: DIVMTQSHKFMSASVGVRVSITCRASQDVDTAVAWYQQKPGQSPKLLIYWASTRHTGVPDRFTGSGSGTDFTLTISNVQSEDLADYFCQQYSSYPYTFGGGTKLEIK
notes: mouse hybridoma antibody
B7: Antibody 035 (antibody, V domains shown)
VH: QVQLQQSGAELARPGASVKLSCKASGYSFTSYGINWVKQRTGQGLEWIGEIYPRSGNTYYNEKFKDKATLTADKSSSTAYMELRSLTSEDSAVYFCARGGTYDGYYYAMDFWGQGTSVTVSS
VL: DIVLTQSPASLAVSLGQRATISCRASESVDNFGSSFLHWYQQKPGQAPKLLIYRASNLESGIPARFSGSGSRTDFTLTINPVETDDVATYYCQQVNKDPRTFGGGTKLEIK
notes: mouse hybridoma antibody
B8: Antibody 057 (antibody, V domains shown)
VH: B7 VH with Y27F, F64L, D66G, K67E, K74R, F111Y
VL: B7 VL with D1N, L37M, S67G, R72G, N80D
notes: mouse hybridoma antibody
B9: Antibody 047 (antibody, V domains shown)
VH: B7 VH with I34V, K63R, K65G, L83I, F111Y
VL: B7 VL with L37M
notes: mouse hybridoma antibody

The binders below were run against T1, hFc tagged human LAG3 D1-D2 recombinant … (assay: ELISA, coated hFc-hLAG3 D1-D2).
Method: Binding activity of the purified hybridoma antibodies against human LAG3 was detected by ELISA assay using hFc tagged human LAG3 D1-D2 recombinant protein. Briefly the antibodies were incubated with ELISA microplate coated antigens at 37° C. for 1 hour. After washing, horseradish peroxidase (HRP) labeled anti-human IgG 2nd Ab (Sigma) was added and incubated at 37° C. for 1 hour. Then, 100 μl/well of TMB solution (Biotechnology) was added. After incubation for 15 minutes at room temperature, the reaction was stopped by the addition of 50 μl of 1N HCl. OD 450 nm was read and EC₅₀ was calculated using GraphPad Prism9.0.

In order of falling EC50:
1. B2  0.07 nM
2. B6  0.07 nM
3. B5  0.06 nM
4. B7  0.06 nM
5. B1  0.05 nM
6. B3  0.05 nM
7. B4  0.05 nM
8. B9  0.04 nM
9. B8  0.02 nM

Each binder was assayed against T2, hFc tagged human LAG3 ECD recombinant … (assay: competitive ELISA: excess competitor, biotin hFc-LAG3 ECD, coated BMS-986016).
Method: (§1) Competitive ELISA assay was used for epitope binning of the purified hybridoma antibodies. […] After washing, HRP labeled anti-streptavidin (SA) 2nd antibody (Sigma) was added and incubated at 37° C. for 1 hour. Then, 100 μl/well of TMB solution (Biotechnology) was added. After incubation for 15 minutes at room temperature, the reaction was stopped by the addition of 50 μl of 1N HCl. OD 450 nm was read. Competition ratio was calculated.

In order of falling “% competition” value:
1. B2  92.5%
2. B3  73%
3. B4  43.7%
4. B6  33.5%
5. B8  29.3%
6. B7  21.7%
7. B5  20.3%
8. B9  8.9%
9. B1  7.2%

Each binder was assayed against T3, human LAG3, full length, stably … (assay: FACS on 293F-human LAG3 cells).
Method: (§2) Briefly the antibodies were incubated with 2×10⁵ target cells at 4° C. for 1 hour. After washing, fluorescence labeled anti-mouse IgG 2nd antibody (Life Technologies) was added and incubated at 4° C. for 1 hour. Geometric median fluorescence intensity (MFI) was detected and EC₅₀ was calculated using GraphPad Prism9.0.

In order of rising EC50:
1. B7  0.66 nM
2. B8  1.04 nM
3. B6  1.12 nM
4. B9  1.14 nM
5. B3  2.04 nM
6. B2  2.33 nM
7. B1  2.38 nM
8. B4  2.65 nM
9. B5  4.58 nM

These binders were tested against T2, hFc tagged human LAG3 ECD recombinant … (assay: competitive FACS: hFc-LAG3 ECD binding to Raji cells (MHC II)).
Method: Competitive FACS assay was used to determine whether the purified hybridoma antibodies can block LAG3 and MHC II interaction. […] After washing, dye labeled anti-human Fc 2nd antibody (Sigma) was added and incubated at 37° C. for 1 hour. Fluorescence intensity was detected.

In order of rising IC50:
1. B6  4.2 nM
2. B5  4.6 nM
3. B2  4.8 nM
4. B4  4.9 nM
5. B7  5 nM
6. B8  5.1 nM
7. B1  5.4 nM
8. B3  5.5 nM
9. B9  7.7 nM

In order of rising “TOP blocking (%)” value:
1. B3  81%
2. B9  82.7%
3. B4  84.2%
4. B8  87.6%
5. B5  90.7%
6. B1  97.2%
7. B2  98.8%
8. B7  99.2%
9. B6  100%

The binders below were run against T5, cyno LAG3, full length, stably expressed on 293F cells (cyno) (assay: FACS on 293F-cyno LAG3 cells, 20 nM antibody).
T5 construct: whole, on cells
Method: as §2

In order of falling “MFI at 20 nM” value:
1. B7  155 MFI
2. B3  154 MFI
3. B6  142 MFI
4. B1  132 MFI
5. B9  129 MFI
6. B4  125 MFI
7. B2  83.4 MFI
8. B8  83.4 MFI
9. B5  35.6 MFI

Each binder was assayed against T4, mouse LAG3, full length, stably … (assay: FACS on CHOK1 cells expressing mouse LAG3).
Method: as §2

B1: no binding.
B2: no binding.
B3: no binding.
B4: no binding.
B5: no binding.
B6: no binding.
B7: no binding.
B8: no binding.
B9: no binding.

Each binder was assayed against T2, hFc tagged human LAG3 ECD recombinant … (assay: competitive ELISA: excess competitor, biotin hFc-LAG3 ECD, coated BAP-050).
Method: as §1

In order of rising “% competition” value:
1. B4  -2.7%
2. B3  -0.5%
3. B2  3.8%
4. B6  6.4%
5. B5  23.5%
6. B1  85.1%
7. B9  87.4%
8. B8  87.7%
9. B7  91.9%
